In test [1] the target is HER3 on cells (MCF7 cells; MDA-175 cells) (UniProt P21860 20-1342, limits assumed). Kind of test: cell-based or functional assay.
The target of test [2] is T1, monomeric human HER3-ecd (Example 9) (human, UniProt P21860 20-643).
T1 construct: extracellular domain
Kind of test: SPR BIAcore 2000, DL11f human IgG1 immobilized on CM5, monomeric ecd analyte 0.244-250 nM, 25 C. A general note: Surface plasmon resonance follows binding to a sensor surface in real time, without labels.

Test [3] has as its target T2, monomeric human EGFR-ecd (Example 9) (human, UniProt P00533 25-637).
T2 construct: range 1-637
Described as above.

For test [4], the target named is T1, monomeric human HER3-ecd (Example 9). Description: SPR, both experiments; reference: affinity for EGFR.
Test [5] has as its target T3, HER4-ECD-Fc (human, UniProt Q15303 26-651, limits assumed).
T3 construct: extracellular domain
T3 sequence (looked up): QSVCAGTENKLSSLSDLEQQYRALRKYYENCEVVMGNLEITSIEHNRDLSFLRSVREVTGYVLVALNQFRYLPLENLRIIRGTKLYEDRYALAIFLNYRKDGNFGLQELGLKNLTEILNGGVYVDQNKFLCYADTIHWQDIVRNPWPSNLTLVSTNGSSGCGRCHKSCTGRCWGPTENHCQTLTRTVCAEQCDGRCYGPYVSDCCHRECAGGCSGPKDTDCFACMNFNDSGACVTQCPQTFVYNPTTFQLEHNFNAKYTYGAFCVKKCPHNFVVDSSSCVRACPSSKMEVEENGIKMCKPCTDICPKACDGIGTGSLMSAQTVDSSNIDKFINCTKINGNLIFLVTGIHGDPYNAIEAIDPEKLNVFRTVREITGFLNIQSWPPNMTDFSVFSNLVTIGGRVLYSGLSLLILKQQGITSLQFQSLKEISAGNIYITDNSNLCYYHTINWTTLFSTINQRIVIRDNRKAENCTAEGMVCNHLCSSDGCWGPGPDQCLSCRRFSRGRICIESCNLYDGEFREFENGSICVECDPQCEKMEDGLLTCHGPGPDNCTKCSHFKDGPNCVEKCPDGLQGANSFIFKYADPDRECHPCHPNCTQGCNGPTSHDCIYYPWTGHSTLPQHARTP
Kind of test: direct phage ELISA, proteins coated at 2 µg/ml, phage-Fab supernatant, OD450.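 Note: specificity test of dual-activity clones, with binding assessed across an antigen panel to check whether each recognises only its cognate target.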 On the technique in general: ELISA stands for enzyme-linked immunosorbent assay.

Test [6] has as its target T4, HER2-ECD (human, UniProt P04626 23-652).
T4 construct: extracellular domain
The description is as above.

For test [7], the target named is T5, Xolair.
T5 construct: not shown: the constant regions
The description is as above.

Test [8] deals with T6, hEGFR-ECD-Fc (human EGFR extracellular domain fused to an Fc region of human IgG1) (human, UniProt P00533 25-645).
T6 construct: extracellular domain; not shown: Fc region of human IgG1
The test is described as above.

In test [9] the target is T7, HER3-ECD-Fc (human, UniProt P21860 20-643, limits assumed).
T7 construct: extracellular domain; also called HER3-FC; HER3-IgG
The description is as above.

Test [10] addresses T8, BSA (bovine, UniProt P02769).
T8 construct: also called bovine serum albumin
The description is as above.

Test [11] addresses T9, human HER3-Fc (Example 9) (human, UniProt P21860 20-640).
T9 construct: range 1-640; Produced in CHO cells, protein A purified; also called human HER3-IgG1; not shown: Fc region of human IgG1
Kind of test: SPR, both experiments; reference: affinity for EGFR.

The target of test [12] is T9, human HER3-Fc (Example 9). Kind of test: SPR BIAcore 2000, Fc fusion captured on CM5 with human Antibody Capture Kit, Fab analyte 0.244-250 nM, 25 C, 1:1 Langmuir.
Test [13] concerns the target T10, human EGFR-Fc (Example 9) (human, UniProt P00533 25-637).
T10 construct: range 1-637; Produced in CHO cells, protein A purified; also called Recombinant human EGFR-IgG1; not shown: Fc region of human IgG1
The description is as above.

Another test has as its target T11, mEGFR-ECD-Fc (murine, UniProt Q01279 25-647).
T11 construct: extracellular domain; also called murine EGFR; not shown: Fc
Kind of test: competitive ELISA: serial dilutions of mEGFR-ECD-Fc with fixed D1.5 on hEGFR-ECD-Fc coated plate.

Test [14] addresses T12, hEGFR-ECD (human, UniProt P00533 25-645).
T12 construct: extracellular domain
Kind of test: SPR, BIAcore-2000, mIgG D1.5 immobilized on CM5 (~150 RU), EGFR-ECD 12.5-200 nM as analyte, 25 C, 1:1 Langmuir model.

Test [15] has as its target T7, HER3-ECD-Fc. Kind of test: phage solution binding competition ELISA as in Example 1, antigen in solution varied.
In test [16] the target is T12, hEGFR-ECD. The test is described as above.
For test [17], the target named is T3, HER4-ECD-Fc. Description: direct phage ELISA on coated proteins as in Example 5, OD450.
The next test concerns the target T13, TGF-α.
T13 construct: also called transforming growth factor alpha
Described as above.

The next test has as its target T14, mHER3-Fc.
T14 chain: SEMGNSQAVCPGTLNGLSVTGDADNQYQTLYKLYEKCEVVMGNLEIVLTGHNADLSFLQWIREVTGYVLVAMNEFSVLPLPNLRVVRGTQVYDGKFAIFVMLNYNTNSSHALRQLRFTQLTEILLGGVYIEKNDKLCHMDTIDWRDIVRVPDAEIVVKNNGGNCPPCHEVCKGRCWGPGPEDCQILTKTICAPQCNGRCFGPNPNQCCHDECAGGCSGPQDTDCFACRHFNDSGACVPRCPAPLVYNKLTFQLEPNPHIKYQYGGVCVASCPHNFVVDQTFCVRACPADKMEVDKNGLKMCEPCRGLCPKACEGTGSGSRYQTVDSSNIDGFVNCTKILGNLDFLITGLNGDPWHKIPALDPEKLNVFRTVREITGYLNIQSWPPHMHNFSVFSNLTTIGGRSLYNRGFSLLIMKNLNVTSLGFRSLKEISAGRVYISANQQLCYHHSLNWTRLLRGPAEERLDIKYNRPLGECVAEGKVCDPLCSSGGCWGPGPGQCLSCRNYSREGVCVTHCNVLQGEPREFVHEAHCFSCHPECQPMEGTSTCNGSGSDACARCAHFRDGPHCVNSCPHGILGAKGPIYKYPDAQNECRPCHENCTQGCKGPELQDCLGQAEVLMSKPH
Described as above.

Test [18] concerns the target T5, Xolair. Described as above.
Test [19] concerns the target T8, BSA. The description is as above.
For test [20], the target named is T4, HER2-ECD. Described as above.

T8 sequence (P02769 25-607 limits assumed): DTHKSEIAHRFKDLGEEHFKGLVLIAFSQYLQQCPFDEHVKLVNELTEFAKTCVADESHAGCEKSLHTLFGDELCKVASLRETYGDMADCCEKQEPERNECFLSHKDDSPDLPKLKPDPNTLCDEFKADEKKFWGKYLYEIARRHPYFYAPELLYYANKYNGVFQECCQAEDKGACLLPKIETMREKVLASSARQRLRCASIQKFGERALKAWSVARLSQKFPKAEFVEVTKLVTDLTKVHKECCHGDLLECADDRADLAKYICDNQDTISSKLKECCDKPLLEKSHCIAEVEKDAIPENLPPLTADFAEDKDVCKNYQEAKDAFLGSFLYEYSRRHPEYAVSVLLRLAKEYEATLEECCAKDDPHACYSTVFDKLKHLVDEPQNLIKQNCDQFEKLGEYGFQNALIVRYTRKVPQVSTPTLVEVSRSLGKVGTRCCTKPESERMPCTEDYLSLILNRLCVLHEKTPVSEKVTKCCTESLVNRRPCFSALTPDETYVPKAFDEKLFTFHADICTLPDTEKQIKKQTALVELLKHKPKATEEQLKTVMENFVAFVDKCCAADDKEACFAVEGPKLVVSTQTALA

B1: DL11f (human IgG1) (bispecific antibody, V domains shown)
VH: EVQLVESGGGLVQPGGSLRLSCAASGFTLSGDWIHWVRQAPGKGLEWVGEISAAGGYTDYADSVKGRFTISADTSKNTAYLQMNSLRAEDTAVYYCARESRVSFEAAMDYWGQGTLVTVSS
VL: DIQMTQSPSSLSASVGDRVTITCRASQNIATDVAWYQQKPGKAPKLLIYSASFLYSGVPSRFSGSGSGTDFTLTISSLQPEDFATYYCQQSEPEPYTFGQGTKVEIKR
As a reminder, the Kd is the free concentration of one partner at which half of the binding sites on the other are occupied at equilibrium, for simple one-to-one binding. A high value points to a looser complex. In the case of B1, the “IC50 of inhibition of MDA-175 cell proliferation” value in [1] was in the range of 0.8 to 1 mg/L. The values for the Kd in [2] and in test [3] were 2.63 nM and 19.9 nM, respectively. In [4], the “fold higher affinity for HER3 than for EGFR” value was in the range of 5 to 8 fold.

B2: D1.5-400 (phage-displayed Fab clone) (Fab, V domains shown)
VH: EVQLVESGGGLVQPGGSLRLSCAASGFTFTGNWIHWVRQAPGKGLEWVGEISPSGGYTDYADSVKGRFTISADTSKNTAYLQMNSLRAEDTAVYYCARESRVSYEAAMDYWGQGTLVTVSS
VL: DIQMTQSPSSLSASVGDRVTITCRASQDVLFYGNVAWYQQKPGKAPKLLIYDGSYLYSGVPSRFSGSGSGTDFTLTISSLQPEDFATYYCQQSYPAPYTFGQGTKVEIKR
notes: EGFR/HER4 clone
As for B2, the binding result is reported as “binds” with HER4-ECD-Fc [5]; “no binding” with HER2-ECD [6]; “no binding” in the test with Xolair [7]; “binds” in test [8]; “no binding” in the test with HER3-ECD-Fc [9]; “no binding” with BSA [10].

B3: DL11f Fab (Fab, V domains shown)
VH: EVQLVESGGGLVQPGGSLRLSCAASGFTLSGDWIHWVRQAPGKGLEWVGEISAAGGYTDYADSVKGRFTISADTSKNTAYLQMNSLRAEDTAVYYCARESRVSFEAAMDYWGQGTLVTVSS
VL: DIQMTQSPSSLSASVGDRVTITCRASQNIATDVAWYQQKPGKAPKLLIYSASFLYSGVPSRFSGSGSGTDFTLTISSLQPEDFATYYCQQSEPEPYTFGQGTKVEIKR
As to B3, the “fold higher affinity for HER3 than for EGFR” value in test [11] lay within 5 to 8 fold. For the same molecule, the figures for the Kd in [12] and in test [13] were 0.39 nM and 1.92 nM, respectively.

B4: D1.5 (mIgG2A) (antibody, V domains shown)
VH: EVQLVESGGGLVQPGGSLRLSCAASGFTFTGNWIHWVRQAPGKGLEWVGEISPSGGYTDYADSVKGRFTISADTSKNTAYLQMNSLRAEDTAVYYCARESRVSYEAAMDYWGQGTLVTVSS
VL: DIQMTQSPSSLSASVGDRVTITCRASQDVSTAVAWYQQKPGKAPKLLIYSASFLYSGVPSRFSGSGSGTDFTLTISSLQPEDFATYYCQQSYPTPYTFGQGTKVEIKR
notes: also called mIgG D1.5; anti-EGFR mIgG2A
Turning to B4, the binding result with mEGFR-ECD-Fc was “binds”. The same molecule had a dissociation constant (Kd) in the test with hEGFR-ECD [14] of 1.2 nM.

B5: DL11 (phage-displayed Fab clone) (Fab, V domains shown)
VH: EVQLVESGGGLVQPGGSLRLSCAASGFTLSGDWIHWVRQAPGKGLEWLGEISAAGGYTDYADSVKGRFTISADTSKNTAYLQMNSLRAEDTAVYYCARESRVSFEAAMDYWGQGTLVTVSS
VL: DIQMTQSPSSLSASVGDRVTITCRASQDLATDVAWYQQKPGKAPKLLIYSASFLYSGVPSRFSGSGSGTDFTLTISSLQPEDFATYYCQQSEPEPYTFGQGTKVEIKR
notes: single Fab on phage
As a reminder, the IC50 is the concentration at which inhibition is half-maximal. Turning to B5, the results for the IC50 with HER3-ECD-Fc [15] and with hEGFR-ECD [16] were 0.43 nM and 5.7 nM, respectively. The binding result with HER4-ECD-Fc [17], in the test with TGF-α, in the test with mHER3-Fc, in the test with Xolair [18] and in the test with BSA [19] was “no binding” in each case.

B6: DL7 (phage-displayed Fab clone) (Fab, V domains shown)
VH: EVQLVESGGGLVQPGGSLRLSCAASGFTLSGDWIHWVRQAPGKGLEWVGEISAAGGYTDYADSVKGRFTISADTSKNTAYLQMNSLRAEDTAVYYCAREARVSYEAAMDYWGQGTLVTVSS
VL: DIQMTQSPSSLSASVGDRVTITCRASQDLATDVAWYQQKPGKAPKLLIYSASFLYSGVPSRFSGSGSGTDFTLTISSLQPEDFATYYCQQSEPEPYTFGQGTKVEIKR
For B6, the IC50 was determined as 0.25 nM with HER3-ECD-Fc [15] and 6.1 nM with hEGFR-ECD [16]. For the same molecule, the binding result with HER4-ECD-Fc [17], with TGF-α, with mHER3-Fc, with HER2-ECD [20], with Xolair [18] and with BSA [19] was “no binding” each time.
